Experimental data: the supplement of paper PMC11246515
± gives the standard deviation of the averaged measurements.

Experiment: total protein half-life in vivo (active degradation + dilution); higher = more stable protein
[1] = E. coli NCM3722 delta-clpP delta-lon delta-hslV, growth: N-lim chemostat, doubling time 6 h
[2] = E. coli NCM3722 delta-clpP, growth: N-lim chemostat, doubling time 6 h
[3] = E. coli NCM3722 delta-hslV, growth: N-lim chemostat, doubling time 6 h
[4] = E. coli NCM3722 delta-lon, growth: N-lim chemostat, doubling time 6 h
[5] = E. coli NCM3722 delta-smpB, growth: N-lim chemostat, doubling time 6 h
[6] = wild type E. coli NCM3722, growth: C-lim chemostat, doubling time 3 h
[7] = wild type E. coli NCM3722, growth: C-lim chemostat, doubling time 6 h
[8] = wild type E. coli NCM3722, growth: C-lim chemostat, doubling time 12 h
[9] = wild type E. coli NCM3722, growth: N-lim chemostat, doubling time 6 h
[10] = wild type E. coli NCM3722, growth: N-lim chemostat, doubling time 12 h
[11] = wild type E. coli NCM3722, growth: P-lim chemostat, doubling time 6 h
[12] = wild type E. coli NCM3722, growth: P-lim chemostat, doubling time 12 h

Sequence: MTVQTSKNPQVDIAEDNAFFPSEYSLSQYTSPVSDLDGVDYPKPYRGKHKILVIAADERYLPTDNGKLFSTGNHPIETLLPLYHLHAAGFEFEVATISGLMTKFEYWAMPHKDEKVMPFFEQHKSLFRNPKKLADVVASLNADSEYAAIFVPGGHGALIGLPESQDVAAALQWAIKNDRFVISLCHGPAAFLALRHGDNPLNGYSICAFPDAADKQTPEIGYMPGHLTWYFGEELKKMGMNIINDDITGRVHKDRKLLTGDSPFAANALGKLAAQEMLAAYAG
- total protein half-life in vivo [1]: 5.25 ± 1.1 h
- total protein half-life in vivo [2]: 5.29 ± 1.6 h
- total protein half-life in vivo [3]: 4.05 ± 0.35 h
- total protein half-life in vivo [4]: 4.62 ± 0.19 h
- total protein half-life in vivo [5]: 4.27 ± 0.24 h
- total protein half-life in vivo [6]: 2.88 ± 0.26 h
- total protein half-life in vivo [7]: 5.19 ± 0.35 h
- total protein half-life in vivo [8]: 10.6 ± 0.23 h
- total protein half-life in vivo [9]: 3.97 ± 0.85 h
- total protein half-life in vivo [10]: 7.51 ± 0.27 h
- total protein half-life in vivo [11]: 5.31 ± 0.43 h
- total protein half-life in vivo [12]: 10.5 ± 1.5 h

Sequence: MFKKILFPLVALFMLAGCAKPPTTIEVSPTITLPQQDPSLMGVTVSINGADQRTDQALAKVTRDNQIVTLTASRDLRFLLQEVLEKQMTARGYMVGPNGPVNLQIIVSQLYADVSQGNVRYNIATKADIAIIATAQNGNKMTKNYRASYNVEGAFQASNKNIADAVNSVLTDTIADMSQDTSIHEFIKQNAR [P0ADA5]
- total protein half-life in vivo [1]: 6.32 ± 1.6 h
- total protein half-life in vivo [4]: 6.15 ± 0.68 h
- total protein half-life in vivo [5]: 5.86 ± 0.59 h
- total protein half-life in vivo [6]: > 4 h
- total protein half-life in vivo [7]: 7.64 ± 0.29 h
- total protein half-life in vivo [8]: 12.6 ± 0.17 h
- total protein half-life in vivo [9]: 6.36 ± 0.12 h
- total protein half-life in vivo [10]: 13 ± 0.98 h
- total protein half-life in vivo [11]: 6.254 ± 0.035 h
- total protein half-life in vivo [12]: 14.94 ± 0.13 h

Sequence: MYQDLIRNELNEAAETLANFLKDDANIHAIQRAAVLLADSFKAGGKVLSCGNGGSHCDAMHFAEELTGRYRENRPGYPAIAISDVSHISCVGNDFGFNDIFSRYVEAVGREGDVLLGISTSGNSANVIKAIAAAREKGMKVITLTGKDGGKMAGTADIEIRVPHFGYADRIQEIHIKVIHILIQLIEKEMVK
- total protein half-life in vivo [1]: 4.5 ± 0.5 h
- total protein half-life in vivo [2]: 4.44 ± 0.26 h
- total protein half-life in vivo [3]: 4.63 ± 0.36 h
- total protein half-life in vivo [4]: 5.19 ± 0.35 h
- total protein half-life in vivo [5]: 4.26 ± 0.082 h
- total protein half-life in vivo [6]: 3.04 ± 0.14 h
- total protein half-life in vivo [7]: 5.89 ± 0.46 h
- total protein half-life in vivo [8]: 11 ± 0.45 h
- total protein half-life in vivo [9]: 4.37 ± 0.08 h
- total protein half-life in vivo [10]: 7.07 ± 0.52 h
- total protein half-life in vivo [11]: 5.73 ± 0.15 h
- total protein half-life in vivo [12]: 11.13 ± 0.11 h

Sequence: MTLWINGDWITGQGASRVKRNPVSGEVLWQGNDADAAQVEQACRAARAAFPRWARLSFAERHAVVERFAALLESNKAELTAIIARETGKPRWEAATEVTAMINKIAISIKAYHVRTGEQRSEMPDGAASLRHRPHGVLAVFGPYNFPGHLPNGHIVPALLAGNTIIFKPSELTPWSGEAVMRLWQQAGLPPGVLNLVQGGRETGQALSALEDLDGLLFTGSANTGYQLHRQLSGQPEKILALEMGGNNPLIIDEVADIDAAVHLTIQSAFVTAGQRCTCARRLLLKSGAQGDAFLARLVAVSQRLTPGNWDDEPQPFIGGLISEQAAQQVVTAWQQLEAMGGRPLLAPRLLQAGTSLLTPGIIEMTGVAGVPDEEVFGPLLRVWRYDTFDEAIRMANNTRFGLSCGLVSPEREKFDQLLLEARAGIVNWNKPLTGAASTAPFGGIGASGNHRPSAWYAADYCAWPMASLESDSLTLPATLNPGLDFSDEVVR
- total protein half-life in vivo [1]: 5.21 ± 0.42 h
- total protein half-life in vivo [2]: 3.93 ± 0.27 h
- total protein half-life in vivo [3]: 3.9 ± 0.23 h
- total protein half-life in vivo [4]: 4.05 ± 0.23 h
- total protein half-life in vivo [5]: 3.9 ± 0.34 h
- total protein half-life in vivo [6]: 3.01 ± 0.28 h
- total protein half-life in vivo [7]: 5.5 ± 0.65 h
- total protein half-life in vivo [8]: 10.05 ± 0.096 h
- total protein half-life in vivo [9]: 3.67 ± 0.23 h
- total protein half-life in vivo [10]: 6.26 ± 0.56 h
- total protein half-life in vivo [11]: 5.78 ± 0.31 h
- total protein half-life in vivo [12]: 12.1 ± 1.7 h

Sequence: MAKERALTLEALRVMDAIDRRGSFAAAADELGRVPSALSYTMQKLEEELDVVLFDRSGHRTKFTNVGRMLLERGRVLLEAADKLTTDAEALARGWETHLTIVTEALVPTPAFFPLIDKLAAKANTQLAIITEVLAGAWERLEQGRADIVIAPDMHFRSSSEINSRKLYTLMNVYVAAPDHPIHQEPEPLSEVTRVKYRGIAVADTARERPVLTVQLLDKQPRLTVSTIEDKRQALLAGLGVATMPYPMVEKDIAEGRLRVVSPESTSEIDIIMAWRRDSMGEAKSWCLREIPKLFNGK
- total protein half-life in vivo [1]: 5.43 ± 0.44 h
- total protein half-life in vivo [2]: 5.71 ± 0.84 h
- total protein half-life in vivo [3]: 5.26 ± 0.14 h
- total protein half-life in vivo [4]: 5.85 ± 0.25 h
- total protein half-life in vivo [5]: 5.34 ± 0.25 h
- total protein half-life in vivo [6]: 3.01 ± 0.2 h
- total protein half-life in vivo [7]: 5.658 ± 0.043 h
- total protein half-life in vivo [8]: 11.2 ± 0.74 h
- total protein half-life in vivo [9]: 5.54 ± 0.4 h
- total protein half-life in vivo [10]: 10.9 ± 0.25 h
- total protein half-life in vivo [11]: 6.09 ± 0.32 h
- total protein half-life in vivo [12]: 11.5 ± 0.97 h

Sequence: MNKYLKYFSGTLVGLMLSTSAFAAAEYAVVLKTLSNPFWVDMKKGIEDEAKTLGVSVDIFASPSEGDFQSQLQLFEDLSNKNYKGIAFAPLSSVNLVMPVARAWKKGIYLVNLDEKIDMDNLKKAGGNVEAFVTTDNVAVGAKGASFIIDKLGAEGGEVAIIEGKAGNASGEARRNGATEAFKKASQIKLVASQPADWDRIKALDVATNVLQRNPNIKAIYCANDTMAMGVAQAVANAGKTGKVLVVGTDGIPEARKMVEAGQMTATVAQNPADIGATGLKLMVDAEKSGKVIPLDKAPEFKLVDSILVTQ
- total protein half-life in vivo [1]: 4 ± 0.15 h
- total protein half-life in vivo [2]: 5.04 ± 0.31 h
- total protein half-life in vivo [3]: 5.783 ± 0.043 h
- total protein half-life in vivo [4]: 6.64 ± 0.52 h
- total protein half-life in vivo [5]: 5.82 ± 0.24 h
- total protein half-life in vivo [6]: 3.15 ± 0.034 h
- total protein half-life in vivo [7]: 6.52 ± 2 h
- total protein half-life in vivo [8]: 9.15 ± 0.44 h
- total protein half-life in vivo [9]: 5.9 ± 0.064 h
- total protein half-life in vivo [10]: 12.3 ± 0.66 h
- total protein half-life in vivo [11]: 5.91 ± 0.37 h
- total protein half-life in vivo [12]: 11.3 ± 0.52 h
